Experiment [1] deals with T1, SV40 T antigen (SV40, UniProt P03070 1-708).
T1 construct: also called T-Ag; viral (SV40) T antigen
Description: recruitment to inclusions, fluorescence microscopy of cells.

The target in experiment [2] is T2, T Antigen-HA fusion protein (SV40, UniProt P03070 1-708).
T2 construct: Construct is not described
As to the kind of experiment: fluorescence microscopy of COS cells expressing T Antigen-HA with GFP-471-721.

Data on one molecule can be found in patent US8652796 (Harvard, dated 2014).

T2 sequence (P03070 1-708, tags or fused parts left off): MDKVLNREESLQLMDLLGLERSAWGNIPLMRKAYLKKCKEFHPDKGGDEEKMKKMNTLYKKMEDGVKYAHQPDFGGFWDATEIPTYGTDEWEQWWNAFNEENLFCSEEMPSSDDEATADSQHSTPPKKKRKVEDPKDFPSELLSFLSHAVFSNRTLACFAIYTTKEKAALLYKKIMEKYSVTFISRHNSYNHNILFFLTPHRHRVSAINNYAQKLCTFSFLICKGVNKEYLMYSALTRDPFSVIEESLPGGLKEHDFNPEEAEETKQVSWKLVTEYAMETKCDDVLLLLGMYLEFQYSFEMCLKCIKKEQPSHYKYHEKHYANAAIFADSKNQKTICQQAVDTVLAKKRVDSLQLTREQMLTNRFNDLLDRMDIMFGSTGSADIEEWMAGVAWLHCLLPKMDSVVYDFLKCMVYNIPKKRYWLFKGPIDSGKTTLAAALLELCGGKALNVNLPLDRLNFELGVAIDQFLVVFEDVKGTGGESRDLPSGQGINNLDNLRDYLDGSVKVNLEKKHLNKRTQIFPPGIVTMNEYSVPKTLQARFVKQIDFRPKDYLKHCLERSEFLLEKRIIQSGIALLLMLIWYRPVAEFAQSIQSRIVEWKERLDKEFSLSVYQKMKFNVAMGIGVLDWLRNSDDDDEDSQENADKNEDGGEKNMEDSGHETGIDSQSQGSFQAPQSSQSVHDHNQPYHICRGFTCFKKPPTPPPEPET

B1: GFP/µNS(471-721) (other)
chain: SNDVTDGIKLQLDASRQCHECPVLQQKVVELEKQIIMQKSIQSDPTPVALQPLLSQLRELSSEVTRLQMELSRAQSLNAQLEADVKSAQSCSLDMYLRHHTCINGHAKEDELLDAVVAPDVRREIMEKRSEVRQGWCERISKEAAAKCQTVIDDLTLMNGKQAQEITELRDSAEKYEKQIAELVSTITQNQITYQQELQALVAKNVELDALNQRQAKSLRITPSLLSATPIDSVDDVADLIDFSVPTDEL
notes: Expressed from pEGFP-C1-M3(471-721); GFP at the N terminus of µNS residues 471-721; also called GFP-471-721 fusion protein; EGFP/µNS(471-721); not shown: enhanced Aequorea victoria green fluorescent protein (EGFP) as encoded by the pEGFP-C1 vector (BD Biosciences); the enha
Consider B1, for which the binding result in experiment [1] and in experiment [2] was “no binding” throughout.
